Test results taken from patent publication US7232659.
Blank lines part the entries; values can stand above or below the substance they belong to.

Tests used:
[1] = target: FPR-GFP fusion protein (human; Aequorea victoria) (UniProt P21462); experiment: flow cytometry, LRG assembly of 30 nM FPR-GFP on αβγ DCNi beads, ligand varied (FIG. 13B); exponent printed as 10^6, read as 10^-6
[2] = target: β2-adrenergic receptor-green fluorescent protein fusion protein (β2AR-GFP) (human; Aequorea victoria) (UniProt P07550); experiment: flow cytometry, soluble Gαsβ1γ2 competing with bead-borne Gαsβ1γ2 for isoproterenol-bound β2AR-GFP (FIG. 4E)
[3] = target: hexahistidine-tagged G protein heterotrimer Gαsβ1γ2 (human) (UniProt P63092); experiment: flow cytometry, ARG assembly of 20 nM β2AR-GFP on Gαsβ1γ2 Ni beads, receptor occupied by dobutamine (FIG. 5B)
[4] = target: hexahistidine-tagged G protein heterotrimer Gαsβ1γ2 (human) (UniProt P63092); experiment: flow cytometry, ARG assembly of 20 nM β2AR-GFP on Gαsβ1γ2 Ni beads, receptor occupied by salbutamol (FIG. 5B)
[5] = target: hexahistidine-tagged G protein heterotrimer Gαsβ1γ2 (human) (UniProt P63092); experiment: flow cytometry, Gαsβ1γ2 on Ni beads, 40 nM β2AR-GFP with 1 mM isoproterenol; background with 0.1 mM GTPγS about 10,000 β2AR-GFP/bead

Sequence of hexahistidine-tagged G protein heterotrimer Gαsβ1γ2 (human) (P63092 other isoform, or with tags, fused parts or gaps, chain 1 of 3): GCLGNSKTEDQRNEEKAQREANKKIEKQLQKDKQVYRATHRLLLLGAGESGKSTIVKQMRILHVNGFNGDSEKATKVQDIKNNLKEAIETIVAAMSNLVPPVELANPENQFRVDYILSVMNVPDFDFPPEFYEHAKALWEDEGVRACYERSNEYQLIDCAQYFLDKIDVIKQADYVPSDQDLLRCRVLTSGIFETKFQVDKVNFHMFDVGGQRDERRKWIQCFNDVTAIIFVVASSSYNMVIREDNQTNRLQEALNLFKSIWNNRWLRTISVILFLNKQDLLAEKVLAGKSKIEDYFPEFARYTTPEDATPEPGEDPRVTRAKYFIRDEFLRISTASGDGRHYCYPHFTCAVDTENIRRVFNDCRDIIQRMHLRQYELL
Sequence of hexahistidine-tagged G protein heterotrimer Gαsβ1γ2 (human) (P62873 2-340, chain 2 of 3, further chain): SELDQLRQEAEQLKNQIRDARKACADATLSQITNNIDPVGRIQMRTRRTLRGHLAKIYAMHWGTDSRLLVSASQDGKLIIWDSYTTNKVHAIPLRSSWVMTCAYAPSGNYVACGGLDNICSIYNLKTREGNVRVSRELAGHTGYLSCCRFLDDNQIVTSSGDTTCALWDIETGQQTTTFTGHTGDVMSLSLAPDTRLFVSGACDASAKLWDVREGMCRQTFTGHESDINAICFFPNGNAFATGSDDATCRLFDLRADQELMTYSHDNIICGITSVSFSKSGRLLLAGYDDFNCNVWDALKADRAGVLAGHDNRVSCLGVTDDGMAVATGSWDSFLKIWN
Sequence of hexahistidine-tagged G protein heterotrimer Gαsβ1γ2 (human) (P59768 other isoform, or with tags, fused parts or gaps, chain 3 of 3, further chain): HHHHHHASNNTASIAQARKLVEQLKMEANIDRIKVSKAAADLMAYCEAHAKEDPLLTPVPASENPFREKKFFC

EC50 [1]: 5.3 µM
Substance: fML (peptide)

Kd [2]: 0.09 to 0.11 µM
Substance: hexahistidine-tagged G protein heterotrimer Gαsβ1γ2 (from UniProt P63092 2-380; P62873 2-340; P59768 2-68)

ARG/bead level against the full agonist isoproterenol [3]: 10 percent | ARG/bead level against the full agonist isoproterenol [4]: 30 percent | total fluorescence, β2AR-GFP/bead (β2AR-GFP/bead) [5]: 80000
Substance: β2-adrenergic receptor-green fluorescent protein fusion protein (β2AR-GFP) (from UniProt P07550 1-413; P42212 1-238)
